Source: patent US20040058356A1, “Methods for global profiling gene regulatory element activity” (priority 2001, published 2004)

Assays:
PC12 cells [1] = assay: EMSA with 32P-labeled transcription factor binding site oligonucleotides, PC12 nuclear extracts; type: cell-based, rat; conditions: treated vs untreated PC12 cells
Method: Confirmation of the increase in the transcription factor AP-1 binding activity was performed by electrophoretic mobility shift assay (EMSA). Nuclear extracts obtained from PC cells either treated with NGF-beta or untreated were combined in separate binding reactions. Each reaction also contained a ^32P-labeled oligonucleotide comprising a binding site for a specific transcription factor. […] In contrast, when the oligonucleotide was specific for the OCT1 binding site (lanes 7 and 8), no increase in gel-shifted material was observed.

PC12 cells [2] = assay: Global regulatory element activity profiling with PC12 nuclear extracts; type: cell-based, rat; conditions: treated vs untreated PC12 cells, FIG. 3
Method: Rat pheochromocytoma (PC) cells (cell line PC12; ATCC Number CRL-1721) were grown in high glucose Dulbecco's Modified Eagle Medium (DMEM) in the presence of 10% horse serum, and then transferred to serum-free DMEM plus N2 supplement (Invitrogen) containing 200 ng/ml Nerve Growth Factor-beta (NGF-beta; Sigma). After a 5 hour exposure, the cells were removed from the dishes, washed with PBS, and collected by centrifugation for regulatory element activity profiling.
Global regulatory element activity profiling was carried out using nuclear extracts from cells that were either untreated or treated with NGF-beta. Known transcription factor binding sites present in the DNA sequences were counted as described for Jurkat cells. Bars indicate the percentage of DNA fragments containing selected cis sites that were isolated in binding reactions containing nuclear extracts from either untreated (white bars) or NGFbeta-treated (black bars) PC12 cells. It can be seen that NGF treatment led to an increase in binding activity for AP 1, ATF and TCF11 (among others), while other activities, for example, E2F and RFX1, were reduced after NGF treatment.

B1: Nerve Growth Factor-beta (protein, UniProt P01139 122-241, looked up)
Beta-nerve growth factor: SSTHPVFHMGEFSVCDSVSVWVGDKTTATDIKGKEVTVLAEVNINNSVFRQYFFETKCRASNPVESGCRGIDSKHWNSYCTTTHTFVKALTTDEKQAAWRFIRIDTACVCVLSRKATRRG
modifications: Beta-nerve growth factor
notes: Nerve Growth Factor-beta (Sigma) used to treat PC12 cells
AP-1 binding site gel-shifted material (DNA-protein complexes) (PC12 cells [1]; FIG. 4 lanes 3 and 4): significant increase
OCT1 binding site gel-shifted material (PC12 cells [1]; FIG. 4 lanes 7 and 8): no increase
AP 1 binding activity (PC12 cells [2]): increase
ATF binding activity (PC12 cells [2]): increase
E2F binding activity (PC12 cells [2]): reduced
RFX1 binding activity (PC12 cells [2]): reduced
TCF11 binding activity (PC12 cells [2]): increase
